Reference: patent US10654918B2, “Inflammatory disease diagnosis and methods of treatment using down-regulators of lipopolysaccharide-responsive beige-like anchor” (University of South Florida, priority 2013, dated 2020)

Key:
Assay type in all cases: cell-based, human
A549 cells = test: Western blot of A549 and A549 pLAsiGFP cells treated with LPS; conditions: for TLR4 levels (Western blot): vs untransfected A549 cells
Protocol: (§1) FIGS. 4A-B are a blot and graph showing knockdown of LRBA increases the TNFα levels in A549 cells (adenocarcinomic human alveolar basal epithelial cells). A549 cells and A549 pLAsiGFP cells (stably transfected with shRNA plasmid against LRBA) were treated with LPS (1 μg/ml). The TNFα concentrations were detected by Western blot. Cells were cultured in 6-well plates and stimulated with LPS (1 μg/ml) for different time as shown, then lysed with RIPA buffer. Western blots were carried out. TNFα antibody (sc-1351. Santa Cruz Biotechnology, Santa Cruz, USA) was used at 1:500 ratio and incubated at 4° C. overnight. BioRad ChemiDoc XRS and Quantity One software were used to acquire gel image and measure band relative intensity. (A) Western blot. 1. A549 No LPS, 2. A549 LPS 30 min, 3. A549 LPS 1 hr, 4. A549 LPS 2 h, 5. A549 LPS 4 h, 6. A549 LPS 24 h, 7. A549 pLAsiGFP LPS 2 h, 8. A549 pLAsiGFP LPS 4 h, 9. A549 pLAsiGFP LPS 24 h. (B) Band intensity quantification from A.
as §1, with “FIG. 17(A)-(B)” for “FIGS. 4A-B”, “series of graphs” for “blot and graph”, “TLR4” for “TNFα”, “cells.” for “cells (adenocarcinomic human alveolar basal epithelial cells).”
FIGS. 31(A) and (B) are a blot and graph showing knockdown of LRBA decreases the total NFκB levels in A549 cells. A549 LIRII cells (stably transfected with pLRBA-VHS) and A549 pLAsiGFP cells (stably transfected with shRNA plasmid against LRBA) were treated with LPS (1 μg/ml). The NFκB concentrations were detected by Western blot. Cells were cultured in 6-well plates and stimulated with LPS (1 μg/ml) for different time as shown, then lysed with RIPA buffer. Western blots were carried out. NF-κB2 p100/p52 Antibody #4882 (Cell Signaling Technology, Danvers, Mass., USA) was used at 1:500 ratio and incubated at 4° C. overnight. BioRad ChemiDoc XRS and Quantity One software were used to acquire gel image and measure band relative intensity. A. Western blot. B. Band intensity quantification from A.

Raji and Raji9 cells = test: Annexin V apoptosis assay after infection with adenoviruses or Gram-negative bacteria; conditions: 24 hrs after infection with adenoviruses or Gram-negative bacteria
Protocol: FIGS. 49(A) through (B) are graphs showing cells with LRBA knockdown cannot fight viral and bacterial infections efficiently. Half million of Raji and Raji9 cells were infected with adenoviruses at 100 multiplicity of infection (MOI) or 50 μl of Gram-negative bacteria from overnight culture. After 24 hours of incubation at 37° C., Apoptosis was detected by Annexin V-PE and 7-AAD. Cells that were double negative (left lower quadrant) were viable, Annexin only positive cells (right lower quadrant) were early phase of apoptosis or other cell death, and double positive cells (right upper quadrant) were end stage apoptosis or dead. ****p<9E-05, *p<0.007.
In order for pathogens to efficiently spread to neighboring cells and evade the immune cells, and/or gain nutrients, one prominent strategy of many bacterial pathogens is to cause host cell death (31). On another hand, the host cell, first will try to kill the evaded pathogens. As such, cell death may be used as a hallmark of immunodeficiency. […] It is hypothesized that Raji cells with LRBA knockdown can serve as an immunodeficiency in vitro model, i.e. they cannot fight pathogens efficiently when compared to wild type cells, manifested as more cell death.

LRBA = test: Knockdown of LRBA in Raji B cell lines stably transfected with LRBA shRNA; conditions: three Raji B cell lines stably transfected
Protocol: Three Raji B cell lines stablely transfected with LRBA shRNA that knockdown LRBA over 90% were generated, along with […] mouse cell lines stably transfected with a LRBA DNM.
LRBA was tested for its effect on cell growth. For the “loss of function” strategy, EBV immotalized LRBA-deficient B cell lines were generated from LRBA deficient patients, and dominant negative LRBA mutants (DNM) and knockout mouse models. The LRBA sequence targeted by the shRNA used was SEQ ID No. 15;

B1: LRBA shRNA: shRNA plasmid against LRBA; targeted LRBA sequence SEQ ID No. 15 GGGATATTGTAGAAACTGTCTTT (nucleic acid)
sense: GGGATATTGTAGAAACTGTCTTTTTCAAGAGAAAAGACAGTTTCTACAATATCCCTTTTTT
antisense: CCCTATAACATCTTTGACAGAAAAAGTTCTCTTTTCTGTCAAAGATGTTATAGGGAAAAAA
- TLR4 levels (Western blot) (A549 cells; 2 h and 4 h after LPS stimulation (1 μg/ml)): increases
- TLR4 levels (Western blot) (A549 cells; 24 h after LPS): no difference
- total NFκB levels (Western blot) (A549 cells; LPS 1 μg/ml, A549 pLAsiGFP cells): decreases
- TNFα levels (Western blot) (A549 cells; LPS 1 μg/ml, A549 pLAsiGFP vs A549): increases
- dead cells or apoptotic cells (Annexin V-PE, 7-AAD) (Raji and Raji9 cells): more dead cells or apoptotic cells
- knockdown of LRBA (LRBA): over 90%
